Assay results published in patent US20120207760A1 (THERACLONE SCIENCES, published 2012).

B1: TCN-557 (5081_A04) (antibody, V domains shown)
VH: QVQLVQSGAEVKKPGASVKVSCKASGHTFTGYYIHWVRQAPGQGLEWMGWINPDSGATSSAQNFQGRVTMTGDTSSSTAYMELSRLSFDDTAVYYCARVLFTSPFDFWGEGTLVTVSS
VL: QAVVTQEPSLAVSPGGTVTLTCGSSTGAVTRGHYPYWFQQKPGQAPRALIYDSAGNRHSWTPARFSGSLLGGKAALTLSGAQPEDEAEYYCLLSYSGVWVFGGGTKLTVL
B2: TCN-549 (5092_P04) (antibody, V domains shown)
VH: QVQLVQSGAEVKKPGASVKVSCKASGYTFTGYYMHWVRQAPGQGLEWMGWINPNSGDTNYAQKFQGRVTMTRDTSITTAYMELSSLRSDDTAVYYCARDSPYSSSWSFFDYWGQGPLVTVSS
VL: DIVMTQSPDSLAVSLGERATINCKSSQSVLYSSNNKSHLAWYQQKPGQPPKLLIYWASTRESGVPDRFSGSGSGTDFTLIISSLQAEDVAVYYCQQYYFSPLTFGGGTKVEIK
B3: TCN-555 (5246_L16) (antibody, V domains shown)
VH: QVQLVQSGAEVKRPGSSVKVSCTASGGIFRKNAISWVRQAPGQGLEWMGGIIAVFNTANYAQKFQNRVKITADESGNTAYMELSSLTSDDTAVYYCASHPKYFYGSGSYPDFWGQGTLVTVSS
VL: QSALTQPRSVSGSPGQSITISCTGGSSDIGASNSVSWYQQHPGKAPKLVIFDVTERPSGVPHRFSGSKSGNTASLTVSGLQPDDEADYFCCAYGGKYLVVFGGGTKVTVL
B4: TCN-553 (5261_C18) (antibody, V domains shown)
VH: QVQVVQSGTEVKKPGSSVKVSCQTSGGRFMSYAITWVRQAPGQGLEWMGGIVPVFGTANYAQKFQGRVTITTDDSTRTAYMELSSLRSEDTAVYYCGFRYGSGYGFDSWGQGTLVTVSS
VL: EIVLTQSPGTLSLSPGERATLSCRASQSVSSSYLAWYQKKPGQAPRLLIYGASTRATGIPDRFTGSGSGTDFTLSISRLEPEDFAVYYCQHFGTSVFTFGGGTKVEIK
B5: TCN-556 (5089_K12) (antibody, V domains shown)
VH: QVQLVQSGAEVKKPGASVKVSCKASGYTFIGYDMHWVRQAPGQGLEWMGWINAKRGGTNYAQKFQGRVTMTRDTSISTAYMELNSLRSDDTAVYYCARGVGSRTTIFGVLNPEFDYWGQGTLVTVSS
VL: QSALTQPPSASGSPGQSVTISCTGSSSDVGGYDYVSWYQQHPGKAPKLLIYEVTKRPSGVPDRFSGSKSGNTASLTVSGLQAEDEADYYCSSYAGNYNHVFGPGTKVTVL
B6: TCN-550 (5096_F06) (antibody, V domains shown)
VH: QVQLQESGPGLVKPSETLSLTCTVSGASINSHYWSWIRQPPGKGLEWIGYVYYSGSTTYNPSLKSRVTLSVDTSKNQFSLNLSSVTAADTAFYYCARHPYDVLTGSGDWFDPWGQGTLVTVSS
VL: SYVLTQAPSVSVAPGQTARITCGGNAIGSKKVHWYQHKAGQAPVLVVYDDTDRPSGIPERFSGSNSWSTATLTINRVEAGDEADYYCQVWDFTIDHVVFGGGTKLTVL
B7: TCN-560 (5084_P10) (antibody, V domains shown)
VH: EVQLVESGGGLVQPGGSLRLSCAASGFIFRNYWMSWVRQAPGKGLEWVANIKQDGREKYYVDSLRGRVNISRDNAENSLYLHMNSLRVEDTAVYFCARARMVVVTGDGFDVWGHGTMVTVSS
VL: DIQMTQSPSSLSASVGDRVTITCRASQNIKRYFNWYQQKPGKAPKLLIYAASNLENGVPSRFSGSGSGTDFTLTISSLQPEDFATYYCQQSFSKSWTFGQGTNVDIK
B8: TCN-552 (5249_I23) (antibody, V domains shown)
VH: QVQVVQSGAEVKKPGSSVRVSCQASGGTFMNYAIIWVRRAPGQGLEWMGGIIPVFPTPNYAQMFQGRVTISTDESRSTSFLELTNLRYEDTAVYYCARRIYHGGNSGFDFWGQGTLVTVSS
VL: EIVLTQSPATLSLSPGERATLSCRASQSVGNYLAWYQQKPGQAPRLLIYDSSNRAPGIPARFSGSGSGTDFTLTISSLAPEDFAVYYCQQRSKWPPMYSFGHGTKLEIK
B9: TCN-551 (5243_D01) (antibody, V domains shown)
VH: EVQLVQSGSEVKKPGESLKISCKGSGYSFSNYWIGWVRHMPGKGLEWMGIIYPGDSDTRYSPSFQGQVTMSADKSSSTVYLQWSSLKASDTAIYYCARRGGHSFGYGSGGDTHSEFDSWGQGTLVTVSS
VL: QSVLTQSPSVSAAPGQKVTISCSGSDSNIGDYFVCWYQHLPGKPPQLLIYENNKRPSGIPDRFSGSKSGTSATLGITGIQTGDEADYYCATWDGSLSAWVFGGGTKLTVL

Target: Hemagglutinin of influenza A/Solomon Islands/3/06 (H1N1), on inactivated whole virions (Influenza A virus A/Solomon …)
Test: ELISA, B cell culture supernatant on inactivated whole virions

Binder | OD450 [OD450]
B1 | 2.32
B2 | 0.09
B3 | 2.89
B4 | 3.6
B5 | 2.7
B6 | 0.06
B7 | 3.63
B8 | 3.57
B9 | 3.35
